Assay results taken from patent US20060029947A1 (University of Texas, published 2006).

Molecular target: Bacillus anthracis protective antigen (PA) (Bacillus anthracis, UniProt P13423 30-764)
Sequence (P13423 30-764 limits assumed): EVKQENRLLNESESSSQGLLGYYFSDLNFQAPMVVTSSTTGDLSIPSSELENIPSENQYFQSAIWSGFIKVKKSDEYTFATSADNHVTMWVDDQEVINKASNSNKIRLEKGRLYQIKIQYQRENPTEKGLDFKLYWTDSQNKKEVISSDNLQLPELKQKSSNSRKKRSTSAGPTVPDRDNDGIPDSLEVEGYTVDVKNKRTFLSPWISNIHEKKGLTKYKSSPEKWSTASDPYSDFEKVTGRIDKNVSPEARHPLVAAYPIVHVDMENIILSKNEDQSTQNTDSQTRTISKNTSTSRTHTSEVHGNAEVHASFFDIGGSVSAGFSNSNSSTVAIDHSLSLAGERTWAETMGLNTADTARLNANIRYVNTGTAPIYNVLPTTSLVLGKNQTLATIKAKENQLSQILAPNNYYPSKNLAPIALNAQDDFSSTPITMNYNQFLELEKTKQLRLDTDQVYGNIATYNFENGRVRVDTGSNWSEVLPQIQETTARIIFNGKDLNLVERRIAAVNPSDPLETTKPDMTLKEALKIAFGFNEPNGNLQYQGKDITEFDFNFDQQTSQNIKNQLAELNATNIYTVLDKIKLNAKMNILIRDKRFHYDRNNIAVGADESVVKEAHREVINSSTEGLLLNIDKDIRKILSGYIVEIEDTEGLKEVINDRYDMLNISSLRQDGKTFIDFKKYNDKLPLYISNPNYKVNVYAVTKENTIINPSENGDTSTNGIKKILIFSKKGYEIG

B1: M18 with the Q55L substitution, scAb (scFv)
chain: DIQMTQTTSSLSASLGDRVTVSCRASQDIRNYLNWYQQKPDGTVKFLIYYTSRLLPGVPSRFSGSGSGTDYSLTINNLEQEDIGTYFCQQGNTPPWTFGGGTKLEIKRGGGGSDGGGSGGGGSGGGGSEVQLQQSGPELVKPGASVKISCKDSGYAFNSSWMNWVKQRPGQGLEWIGRIYPGDGDSNYNGKFEGKAILTADKSSSTAYMQLSSLTSVDSAVYFCARSGLLRYAMDYWGQGTSVTVSS
Work on B1 yielded a Kd of 0.021 nM, a koff of 2.4e-05 s⁻¹ and a kon of 1.1e+06 M⁻¹ s⁻¹.
